Literature values, collected in article PMC9594322.
pKd: −log10 of the molar value.

Molecular target: HIF-1β PAS-B (Homo sapiens) (UniProt P27540)
Sequence (P27540 356-470): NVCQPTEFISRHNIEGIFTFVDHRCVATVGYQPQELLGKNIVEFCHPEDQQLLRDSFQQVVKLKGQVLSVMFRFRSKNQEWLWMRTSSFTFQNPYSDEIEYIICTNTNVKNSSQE

Chain of HIF-1α PAS-B (Q16665 238-349): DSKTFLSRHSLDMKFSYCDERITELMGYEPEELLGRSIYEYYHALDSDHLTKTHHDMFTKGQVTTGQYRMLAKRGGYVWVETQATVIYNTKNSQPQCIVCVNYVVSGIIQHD

pKd: 6.42
Substance: HIF-1α PAS-B (from UniProt Q16665)
